The text below walks through data of patent publication US20090214535A1.

The assay concerns the target monkey Mpl (on BaF3-monkey Mpl cells) (monkey).

Turning to hTPO (ligand), the EC50 (read off the curve) [B) BaF-monkey Mpl] was found to be 0.01 nM.
